Laboratory results published in US20210261648A1 (published 2021).
Substitutions are numbered along the chain they refer to. Numbers in names are those of the source. Each block holds one binder with its values, some of them ahead of it.

What was measured:
[1] = molecular target: T1, FcγRIIb extracellular domain with C-terminal His tag (human, UniProt P31994 43-217); assay: SPR (Biacore)
T1 construct: extracellular domain; For crystals it was expressed with kifunensine and trimmed with Endo F1; also called FcgRIIb; FcγRIIb extracellular region
T1 sequence (looked up): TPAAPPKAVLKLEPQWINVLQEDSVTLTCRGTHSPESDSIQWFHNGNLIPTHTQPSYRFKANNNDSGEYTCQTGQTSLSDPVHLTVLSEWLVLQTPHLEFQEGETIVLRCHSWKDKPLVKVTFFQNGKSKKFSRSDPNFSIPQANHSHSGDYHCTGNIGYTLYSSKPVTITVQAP

[2] = molecular target: T2, FcγRIIa type R (human, UniProt P12318 34-217); assay: SPR (Biacore); parent = IL6R-B3/IL6R-L
T2 chain: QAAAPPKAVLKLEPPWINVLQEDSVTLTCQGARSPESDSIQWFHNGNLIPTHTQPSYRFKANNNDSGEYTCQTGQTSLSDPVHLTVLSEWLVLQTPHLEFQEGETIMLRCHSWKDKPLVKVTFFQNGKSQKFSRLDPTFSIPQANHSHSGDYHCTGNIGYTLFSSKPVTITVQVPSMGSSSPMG

[3] = molecular target: T3, FcγRIIb (human, UniProt P31994 43-217); assay: SPR (Biacore); parent = IL6R-B3/IL6R-L
T3 construct: extracellular domain; also called FcgRIIb; CD32B
T3 sequence (looked up): T1 sequence (looked up)

[4] = molecular target: T4, FcγRIIa type H (human, UniProt P12318 34-217); assay: SPR (Biacore), captured antibody, soluble FcγR
T4 construct: extracellular domain; also called FcγRIIaH; FcgRIIaH
T4 sequence (looked up): T2 chain with R134H

[5] = molecular target: T2, FcγRIIa type R; assay: SPR (Biacore), captured antibody, soluble FcγR
[6] = molecular target: T5, FcγRIa (human, UniProt P12314 16-292); assay: SPR (Biacore), captured antibody, soluble FcγR
T5 construct: Whole entry named; also called FcgRIa; CD64A
T5 sequence (P12314 16-292): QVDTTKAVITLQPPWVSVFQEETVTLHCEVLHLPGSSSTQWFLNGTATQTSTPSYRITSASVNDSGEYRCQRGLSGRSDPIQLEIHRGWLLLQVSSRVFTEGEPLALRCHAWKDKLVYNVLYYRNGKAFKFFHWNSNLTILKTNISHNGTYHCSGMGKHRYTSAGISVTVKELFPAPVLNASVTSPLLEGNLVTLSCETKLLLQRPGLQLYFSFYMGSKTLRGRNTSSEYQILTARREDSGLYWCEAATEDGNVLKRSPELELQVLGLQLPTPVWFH

[7] = molecular target: T3, FcγRIIb; assay: SPR (Biacore), captured antibody, soluble FcγR

B1: IL6R-BP455/IL6R-L (antibody, human IgG1, kappa, name in EU numbering)
heavy: QVQLQESGPGLVKPSETLSLTCAVSGHSISHDHAWSWVRQPPGEGLEWIGFISYSGITNYNPSLQGRVTISRDNSKNTLYLQMNSLRAEDTAVYYCARSLARTTAMDYWGEGTLVTVSSASTKGPSVFPLAPSSKSTSGGTAALGCLVKDYFPEPVTVSWNSGALTSGVHTFPAVLQSSGLYSLSSVVTVPSSSLGTQTYICNVNHKPSNTKVDKKVEPKSCDKTHTCPPCPAPDLLGDDSVFLFPPKPKDTLMISRTPEVTCVVVDVAEEDGEVKFNWYVDGVEVHNAKTKPREEQYNSTYRVVSVLTVLHQDWLNGKEYKCKVSNKALPRPIEKTISKAKGQPREPQVYTLPPSRDELTKNQVSLTCLVKGFYPSDIAVEWESNGQPENNYKTTPLVLDSDGSFFLYSKLTVDKSRWQQGNVFSCSVMHEALHNHYTQESLSLSP
light: not shown
binding result [1]: binds

B2: IL6R-BP465/IL6R-L (antibody, human IgG1, kappa)
heavy: B1 heavy with A269S, E270D, Y298D, E335K, L398P
light: not shown
binding result [1]: binds

B3: IL6R-BP491/IL6R-L (antibody, human IgG1, kappa)
heavy: B1 heavy with D235E, V266I, Y298D, L398P
light: not shown
notes: Alterations in EU numbering, introduced into IL6R-B3
KD(IIaR) of the parent polypeptide/KD(IIaR) of the altered polypeptide [2]: 9.3 fold | KD(IIb) of the parent polypeptide/KD(IIb) of the altered polypeptide [3]: 1020 fold | Kd [4]: 2200 nM | Kd [5]: 120 nM | Kd [6]: 5.3 nM | Kd [7]: 3 nM

B4: IL6R-BP544/IL6R-L (antibody, human IgG1, kappa)
heavy: B1 heavy with A269S, E270D, Y298D, R357Q, L398P
light: not shown
binding result [1]: binds

B6: IL6R-BP567/IL6R-L (antibody, human IgG1, kappa)
heavy: B1 heavy with D239G, V266I, Y298D, R332A, L398P
light: not shown
binding relative to IL6R-B3/IL6R-L [1]: ≥ 100 times

B10: IL6R-BP488/IL6R-L (antibody, human IgG1, kappa)
heavy: B1 heavy with V266I, Y298D, L398P
light: not shown
notes: as for B3
KD(IIaR) of the parent polypeptide/KD(IIaR) of the altered polypeptide [2]: 14.8 fold | KD(IIb) of the parent polypeptide/KD(IIb) of the altered polypeptide [3]: 1680 fold | Kd [4]: 1600 nM | Kd [5]: 74 nM | Kd [6]: 2.2 nM | Kd [7]: 1.9 nM

B11: IL6R-BP489/IL6R-L (antibody, human IgG1, kappa)
heavy: B1 heavy with V266I, Y298D, L398M
light: not shown
notes: as for B3
KD(IIaR) of the parent polypeptide/KD(IIaR) of the altered polypeptide [2]: 25.7 fold | KD(IIb) of the parent polypeptide/KD(IIb) of the altered polypeptide [3]: 3100 fold | Kd [4]: 870 nM | Kd [5]: 43 nM | Kd [6]: 1.3 nM | Kd [7]: 1 nM

B12: IL6R-BP497/IL6R-L (antibody, human IgG1, kappa)
heavy: B1 heavy with V266I, A329G, L398P
light: not shown
notes: as for B3
KD(IIaR) of the parent polypeptide/KD(IIaR) of the altered polypeptide [2]: 12.9 fold | KD(IIb) of the parent polypeptide/KD(IIb) of the altered polypeptide [3]: 764 fold | Kd [4]: 960 nM | Kd [5]: 85 nM | Kd [6]: 2.1 nM | Kd [7]: 4.1 nM

B16: IL6R-BP438/IL6R-L (antibody, human IgG1, kappa)
heavy: B1 heavy with I334T, L398P
light: not shown
notes: as for B3
Kd [4]: 1600 nM | Kd [5]: 180 nM

B18: IL6R-BP496/IL6R-L (antibody, human IgG1, kappa)
heavy: B1 heavy with V266I, Y298D, R332A, L398P
light: not shown
notes: as for B3
KD(IIaR) of the parent polypeptide/KD(IIaR) of the altered polypeptide [2]: 2.3 fold | KD(IIb) of the parent polypeptide/KD(IIb) of the altered polypeptide [3]: 168 fold | Kd [4]: 3700 nM | Kd [5]: 470 nM | Kd [6]: 1.2 nM | Kd [7]: 18 nM

More lines, now with the values ahead:

binding result [1]: binds
B5: IL6R-BP546/IL6R-L (antibody, human IgG1, kappa)
heavy: B1 heavy with A269S, E270D, Y298D, L360M, L398P
light: not shown

binding result [1]: binds
B7: IL6R-BP458/IL6R-L (antibody, human IgG1, kappa, name in EU numbering)
heavy: B1 heavy with L398Q
light: not shown

binding result [1]: binds
B8: IL6R-BP464/IL6R-L (antibody, human IgG1, kappa, name in EU numbering)
heavy: B1 heavy with L398Y
light: not shown

binding result [1]: binds
B9: variant resulting from adding V266M to IL6R-BP267/IL6R-L (antibody, human IgG1, kappa)
heavy: B1 heavy with V268M, A269S, R332A, L398P
light: not shown

binding result [1]: binds
B13: variant resulting from adding S267G to IL6R-BP267/IL6R-L (antibody, human IgG1, kappa)
heavy: B1 heavy with A269G, R332A, L398P
light: not shown

binding result [1]: binds
B14: IL6R-AP009/IL6R-BP260/IL6R-L (antibody, human IgG1, kappa)
heavy 1: B1 heavy with A269S, E270D, Y298D, D358K, L398P, H437R, E441K
heavy 2: B1 heavy with S241E, A269S, E270D, Y298D, L398P
light: not shown
notes: Heterodimer: S239E in one chain only

binding result [1]: binds
B15: variant resulting from adding V266F to IL6R-BP267/IL6R-L (antibody, human IgG1, kappa)
heavy: B1 heavy with V268F, A269S, R332A, L398P
light: not shown

binding result [1]: binds
B17: IL6R-BP470/IL6R-L (antibody, human IgG1, kappa)
heavy: B1 heavy with A269S, E270D, Y298D, E335T, L398P
light: not shown

binding result [1]: binds
B19: IL6R-BP541/IL6R-L (antibody, human IgG1, kappa)
heavy: B1 heavy with A269S, E270D, K276Q, Y298D, L398P
light: not shown
